The values that follow come from publication PMC4879523.

The target in assay [1] is α subunit of the chimeric Gi protein fused to TagRFP.
Assay [2] has the same target. Briefly: FRET or BRET; sensitized-emission FRET in live HeLa cells 2 days after co-transfection; donor EGFP at the C-terminus of LANCL2 forms, acceptor TagRFP at the N-terminus of the chimeric Gi α subunit; apparent FRET efficiency in plasmamembrane or whole-cell ROIs. (In general: BRET reads energy transfer from a luciferase to a nearby fluorophore.)

B1: LANCL2 fused to EGFP (receptor)
chain: MGETMSKRLKLHLGGEAEMEERAFVNPFPDYEAAAGALLASGAAEETGCVRPPATTDEPGLPFHQDGKIIHNFIRRIQTKIKDLLQQMEEGLKTADPHDCSAYTGWTGIALLYLQLYRVTCDQTYLLRSLDYVKRTLRNLNGRRVTFLCGDAGPLAVGAVIYHKLRSDCESQECVTKLLQLQRSVVCQESDLPDELLYGRAGYLYALLYLNTEIGPGTVCESAIKEVVNAIIESGKTLSREERKTERCPLLYQWHRKQYVGAAHGMAGIYYMLMQPAAKVDQETLTEMVKPSIDYVRHKKFRSGNYPSSLSNETDRLVHWCHGAPGVIHMLMQAYKVFKEEKYLKEAMECSDVIWQRGLLRKGYGICHGTAGNGYSFLSLYRLTQDKKYLYRACKFAEWCLDYGAHGCRIPDRPYSLFEGMAGAIHFLSDVLGPETSRFPAFELDSSKRD
modifications: N-terminal glycine myristoylation
For the molecule B1, in assay [1], the [cAMP]i in HeLa cells overexpressing LANCL2-GFP, 30 s after 5 μM ABA, over basal, unstimulated values is 170%. In assay [2], the apparent FRET efficiency (plasmamembrane ROIs) came to 20% and the apparent FRET efficiency (whole-cell regions) stood at 20%.
